Data on two molecules can be found in PMC4378652 (Molecular and cellular endocrinology, 2015).

For this assay, the target named is T1, rat FSH receptor (rat testis homogenate) (rat (endogenous in rat testis), UniProt P20395 18-692).
T1 sequence (looked up): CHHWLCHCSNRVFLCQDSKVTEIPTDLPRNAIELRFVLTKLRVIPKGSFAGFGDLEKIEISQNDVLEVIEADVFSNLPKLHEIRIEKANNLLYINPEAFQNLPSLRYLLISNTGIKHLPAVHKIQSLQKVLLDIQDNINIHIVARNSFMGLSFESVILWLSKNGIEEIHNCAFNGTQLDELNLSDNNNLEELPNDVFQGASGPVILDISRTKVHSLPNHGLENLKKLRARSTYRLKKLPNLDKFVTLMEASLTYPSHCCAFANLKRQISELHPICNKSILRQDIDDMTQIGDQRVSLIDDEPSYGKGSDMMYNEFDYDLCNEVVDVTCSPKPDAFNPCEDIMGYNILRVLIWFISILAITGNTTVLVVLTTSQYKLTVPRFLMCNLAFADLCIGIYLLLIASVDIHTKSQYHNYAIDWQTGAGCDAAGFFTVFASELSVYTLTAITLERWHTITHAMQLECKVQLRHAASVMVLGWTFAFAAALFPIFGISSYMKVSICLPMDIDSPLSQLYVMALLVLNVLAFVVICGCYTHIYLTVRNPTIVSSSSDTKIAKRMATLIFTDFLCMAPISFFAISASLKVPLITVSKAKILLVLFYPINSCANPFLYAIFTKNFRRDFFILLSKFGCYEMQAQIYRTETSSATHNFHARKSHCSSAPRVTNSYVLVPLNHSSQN
As to the kind of experiment: radioligand binding.

B1: Pituitary hFSH^24/21 (AFP7298A) (ligand)
chain 1: not shown
chain 2: NSCELTNITIAIEKEECRFCISINTTWCAGYCYTRDLVYKDPARPKIQKTCTFKELVYETVRVPGCAHHADSLYTYPVATQCHCGKCDSDSTDCTVRGLGPSYCSFGEMKE
modifications: N-glycosylated (positions not given) | mixture of FSHβ^24 (fully glycosylated) and FSHβ^21, FSHβ^24 the more abundant
In the case of B1, the ID50 was determined as 114 ng.

B2: Pituitary hFSH^24 (ligand)
chain 1: not shown
chain 2: NSCELTNITIAIEKEECRFCISINTTWCAGYCYTRDLVYKDPARPKIQKTCTFKELVYETVRVPGCAHHADSLYTYPVATQCHCGKCDSDSTDCTVRGLGPSYCSFGEMKE
modifications: N-glycosylated (two N-glycans, positions not given) | fully glycosylated FSHβ^24 (N-glycans at Asn7 and Asn24)
B2 came in with an ID50 of 253 ng.
